Data on 14 molecules can be found in patent US20240409906, “INTEGRASES, LANDING PAD ARCHITECTURES, AND ENGINEERED CELLS COMPRISING THE SAME” (Asimov Inc., published 2024).

What all share (conditions): tags: C-terminal GS linker-SV40 NLS
One data set has as its target T1, Int2 (Streptomyces scabiei 87.22).
T1 chain: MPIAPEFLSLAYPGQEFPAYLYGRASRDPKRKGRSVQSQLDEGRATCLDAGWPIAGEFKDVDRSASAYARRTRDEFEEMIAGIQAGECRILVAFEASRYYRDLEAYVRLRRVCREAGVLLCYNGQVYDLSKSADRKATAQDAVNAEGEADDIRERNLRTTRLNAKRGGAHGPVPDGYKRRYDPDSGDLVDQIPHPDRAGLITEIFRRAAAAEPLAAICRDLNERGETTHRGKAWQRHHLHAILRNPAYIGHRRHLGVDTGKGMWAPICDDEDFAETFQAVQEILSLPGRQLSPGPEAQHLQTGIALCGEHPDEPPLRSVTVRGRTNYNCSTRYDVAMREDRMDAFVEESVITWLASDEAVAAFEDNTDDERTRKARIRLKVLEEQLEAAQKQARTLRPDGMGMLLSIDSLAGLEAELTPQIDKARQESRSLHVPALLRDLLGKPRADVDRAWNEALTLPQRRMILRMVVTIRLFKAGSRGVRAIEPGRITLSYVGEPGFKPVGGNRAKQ
The data set is described as follows: cell_activity; attB x attP EGFP inversion reporter, HEK293FT.

A further data set concerns the target T2, Int3 (Streptococcus pyogenes M1 GAS (phage …)).
T2 chain: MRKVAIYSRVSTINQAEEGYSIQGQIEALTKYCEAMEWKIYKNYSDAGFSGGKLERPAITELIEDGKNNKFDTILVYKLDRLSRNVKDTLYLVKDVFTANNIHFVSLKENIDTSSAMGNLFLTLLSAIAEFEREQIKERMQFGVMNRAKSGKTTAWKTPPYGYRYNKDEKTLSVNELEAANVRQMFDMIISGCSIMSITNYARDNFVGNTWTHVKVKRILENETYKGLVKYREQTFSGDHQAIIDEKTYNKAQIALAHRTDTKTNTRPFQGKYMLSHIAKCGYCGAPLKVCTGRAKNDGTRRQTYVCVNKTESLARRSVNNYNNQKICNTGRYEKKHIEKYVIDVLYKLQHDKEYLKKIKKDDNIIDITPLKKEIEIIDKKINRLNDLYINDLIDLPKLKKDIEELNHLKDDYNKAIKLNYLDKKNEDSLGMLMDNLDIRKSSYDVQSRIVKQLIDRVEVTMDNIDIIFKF
The data set is described as follows: cell_activity.

The next data set deals with Int11 (Clostridium botulinum B str. Eklund 17B). Nature of the data set: cell_activity; attB x attP EGFP inversion reporter, HEK293FT.
The target of a further data set is T3, Int8 (Staphylococcus haemolyticus JCSC1435).
T3 chain: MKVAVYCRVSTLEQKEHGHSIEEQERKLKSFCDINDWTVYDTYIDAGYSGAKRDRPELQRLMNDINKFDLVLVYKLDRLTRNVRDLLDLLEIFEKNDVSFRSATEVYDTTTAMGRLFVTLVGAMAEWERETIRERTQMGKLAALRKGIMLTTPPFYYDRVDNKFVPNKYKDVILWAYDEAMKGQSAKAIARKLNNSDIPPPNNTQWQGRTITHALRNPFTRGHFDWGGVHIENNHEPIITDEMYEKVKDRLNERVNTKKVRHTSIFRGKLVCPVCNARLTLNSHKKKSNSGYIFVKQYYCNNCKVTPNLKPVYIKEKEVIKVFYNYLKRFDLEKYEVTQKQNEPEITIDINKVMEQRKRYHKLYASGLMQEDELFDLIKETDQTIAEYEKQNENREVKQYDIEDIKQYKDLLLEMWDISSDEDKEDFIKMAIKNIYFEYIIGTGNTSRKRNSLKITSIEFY
The data set is described as above.

The next data set concerns the target T4, Int10 (Streptococcus pneumoniae 670-6B).
T4 chain: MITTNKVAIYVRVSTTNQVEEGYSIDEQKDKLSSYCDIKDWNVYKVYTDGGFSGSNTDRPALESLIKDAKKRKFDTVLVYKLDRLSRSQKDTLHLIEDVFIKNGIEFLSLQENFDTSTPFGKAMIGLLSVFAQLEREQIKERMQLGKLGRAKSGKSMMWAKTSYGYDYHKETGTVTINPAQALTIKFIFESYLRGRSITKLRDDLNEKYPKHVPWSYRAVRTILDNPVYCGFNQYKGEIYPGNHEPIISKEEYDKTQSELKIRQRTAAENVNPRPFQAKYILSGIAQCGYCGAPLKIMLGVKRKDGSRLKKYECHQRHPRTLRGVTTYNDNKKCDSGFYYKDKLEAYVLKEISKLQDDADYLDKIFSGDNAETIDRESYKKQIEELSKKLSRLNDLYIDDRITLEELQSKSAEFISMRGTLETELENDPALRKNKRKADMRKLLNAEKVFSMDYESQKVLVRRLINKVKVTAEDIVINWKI
Nature of the data set: cell_activity.

In another data set the target is T5, Int12 (Staphylococcus lugdunensis N920143).
T5 chain: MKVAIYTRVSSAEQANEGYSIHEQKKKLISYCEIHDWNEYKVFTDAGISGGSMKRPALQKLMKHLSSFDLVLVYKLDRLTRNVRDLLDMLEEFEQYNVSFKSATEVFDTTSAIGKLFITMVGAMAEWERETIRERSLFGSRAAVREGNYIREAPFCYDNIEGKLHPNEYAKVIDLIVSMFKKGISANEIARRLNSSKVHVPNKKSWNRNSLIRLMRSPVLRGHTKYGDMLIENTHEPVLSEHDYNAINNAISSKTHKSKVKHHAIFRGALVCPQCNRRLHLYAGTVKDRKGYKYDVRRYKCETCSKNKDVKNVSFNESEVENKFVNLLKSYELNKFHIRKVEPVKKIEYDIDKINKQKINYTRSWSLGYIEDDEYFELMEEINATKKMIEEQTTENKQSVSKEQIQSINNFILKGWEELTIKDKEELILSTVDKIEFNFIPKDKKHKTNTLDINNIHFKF
Nature of the data set: cell_activity; attB x attP EGFP inversion reporter, HEK293FT.

The target in another data set is T6, Int9 (Staphylococcus aureus str. Newman).
T6 chain: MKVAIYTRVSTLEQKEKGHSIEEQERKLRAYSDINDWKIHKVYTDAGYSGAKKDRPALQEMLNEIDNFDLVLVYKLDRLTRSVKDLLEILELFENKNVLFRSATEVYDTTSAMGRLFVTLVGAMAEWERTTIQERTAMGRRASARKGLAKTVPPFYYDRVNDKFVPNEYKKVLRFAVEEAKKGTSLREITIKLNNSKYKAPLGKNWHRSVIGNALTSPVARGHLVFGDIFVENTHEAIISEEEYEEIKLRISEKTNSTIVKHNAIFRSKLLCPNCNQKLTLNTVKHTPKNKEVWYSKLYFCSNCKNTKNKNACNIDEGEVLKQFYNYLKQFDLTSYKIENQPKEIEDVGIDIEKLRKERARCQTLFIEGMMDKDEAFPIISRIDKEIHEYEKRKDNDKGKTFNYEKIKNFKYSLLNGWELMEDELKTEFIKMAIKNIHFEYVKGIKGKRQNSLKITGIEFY
Nature of the data set: cell_activity.

B1: Int2 attB (dsDNA)
DNA 1: GGACGGCGCAGAAGGGGAGTAGCTCTTCGCCGGACCGTCGACATACTGCTCAGCTCGTC
DNA 2: GACGAGCTGAGCAGTATGTCGACGGTCCGGCGAAGAGCTACTCCCCTTCTGCGCCGTCC
Regarding B1, in the data set with Int2, the binding signal was 0.17 fraction of Bxb1.

B2: Int3 attP (dsDNA)
DNA 1: ATGGATAAAAAAATACAGCGTTTTTCATGTACAACTATACTAGTTGTAGTGCCTAAATAATGCTT
DNA 2: AAGCATTATTTAGGCACTACAACTAGTATAGTTGTACATGAAAAACGCTGTATTTTTTTATCCAT
Take B2: the binding signal in the data set with Int3 is 1.11 fraction of Bxb1.

B3: Int11 attB (dsDNA)
DNA 1: ATGGATTTTGCAGATTCCCAGATGCCCCTACAGAAAGAGGTACAAAACATTTATTGGAATTAATT
DNA 2: AATTAATTCCAATAAATGTTTTGTACCTCTTTCTGTAGGGGCATCTGGGAATCTGCAAAATCCAT
Regarding B3, in the data set with Int11, the binding signal is 1.81 fraction of Bxb1.

B4: Int3 attB (dsDNA)
DNA 1: GTTTGTAAAGGAGACTGATAATGGCATGTACAACTATACTCGTCGGTAAAAAGGCATCTTAT
DNA 2: ATAAGATGCCTTTTTACCGACGAGTATAGTTGTACATGCCATTATCAGTCTCCTTTACAAAC
Consider B4, for which the binding signal with Int3 was 1.11 fraction of Bxb1.

B5: Int8 attP (dsDNA)
DNA 1: TTAATAAACTATGGAAGTATGTACAGTCTTGCAATGTTGAGTGAACAAACTTCCATAATAAAAT
DNA 2: ATTTTATTATGGAAGTTTGTTCACTCAACATTGCAAGACTGTACATACTTCCATAGTTTATTAA
Turning to B5, in the data set with Int8, the binding signal was 0.068 fraction of Bxb1.

B6: Int10 attP (dsDNA)
DNA 1: GGAAAATATAAATAATTTTAGTAACCTACATCTCAATCAAGGATAGTAAAACTCTCACTCTT
DNA 2: AAGAGTGAGAGTTTTACTATCCTTGATTGAGATGTAGGTTACTAAAATTATTTATATTTTCC
Take B6: in the data set with Int10, the binding signal was 5.49 fraction of Bxb1.

B7: Int12 attP (dsDNA)
DNA 1: TTTTTGTATGTTAGTTGTGTCACTGGGTAGACCTAAATAGTGACACAACTGCTATTAAAATTTAA
DNA 2: TTAAATTTTAATAGCAGTTGTGTCACTATTTAGGTCTACCCAGTGACACAACTAACATACAAAAA
Regarding B7, in the data set with Int12, the binding signal was 0.821 fraction of Bxb1.

B8: Int2 attP (dsDNA)
DNA 1: GCTCATGTATGTGTCTACGCGAGATTCTCGCCCGAGAACTTCTGCAAGGCACTGCTCTTGGCT
DNA 2: AGCCAAGAGCAGTGCCTTGCAGAAGTTCTCGGGCGAGAATCTCGCGTAGACACATACATGAGC
With B8, the binding signal with Int2 was 0.17 fraction of Bxb1.

B9: Int9 attB (dsDNA)
DNA 1: TTTATATTGCGAAAAATAATTGGCGAACGAGGTAACTGGATACCTCATCCGCCAATTAAAATTTG
DNA 2: CAAATTTTAATTGGCGGATGAGGTATCCAGTTACCTCGTTCGCCAATTATTTTTCGCAATATAAA
With B9, the binding signal with Int9 was 0.08 fraction of Bxb1.

B10: Int10 attB (dsDNA)
DNA 1: AGCACGCTGATAATCAGCAAGACCACCAACATTTCCACCAATGTAAAAGCTTTAACCTTAGC
DNA 2: GCTAAGGTTAAAGCTTTTACATTGGTGGAAATGTTGGTGGTCTTGCTGATTATCAGCGTGCT
Take B10: the binding signal in the data set with Int10 was 5.49 fraction of Bxb1.

B11: Int12 attB (dsDNA)
DNA 1: GTTCGTGGTAACTATGGGTGGTACAGGTGCCACATTAGTTGTACCATTTATGTTTATGTGGTTAAC
DNA 2: GTTAACCACATAAACATAAATGGTACAACTAATGTGGCACCTGTACCACCCATAGTTACCACGAAC
For B11, the binding signal with Int12 was 0.821 fraction of Bxb1.

B12: Int11 attP (dsDNA)
DNA 1: GTTTATATGTTTACTAATAAGACGCTCTCAACCCATAAAGTCTTATTAGTAAACATATTTCAACT
DNA 2: AGTTGAAATATGTTTACTAATAAGACTTTATGGGTTGAGAGCGTCTTATTAGTAAACATATAAAC
As to B12, the binding signal with Int11 is 1.81 fraction of Bxb1.

B13: Int8 attB (dsDNA)
DNA 1: CAATCATCAGATAACTATGGCGGCACGTGCATTAACCACGGTTGTATCCCGTCTAAAGTACTCGT
DNA 2: ACGAGTACTTTAGACGGGATACAACCGTGGTTAATGCACGTGCCGCCATAGTTATCTGATGATTG
Take B13: the binding signal with Int8 is 0.068 fraction of Bxb1.

B14: Int9 attP (dsDNA)
DNA 1: GTGGTTGTTTTTGTTGGAAGTGTGTATCAGGTATCTGCATAGTTATTCCGAACTTCCAATTA
DNA 2: TAATTGGAAGTTCGGAATAACTATGCAGATACCTGATACACACTTCCAACAAAAACAACCAC
For the molecule B14, the binding signal with Int9 is 0.08 fraction of Bxb1.
